{"source": "patent US20240401082A1", "about": "(Sanofi, published 2024)", "binders": {"B1": {"name": "construct #19: αC1s scFab-(G4S)3-αBb F2A Fab (bispecific antibody)", "chain": "DIVLTQSPDSLAVSLGERATISCKASQSVDYDGDSYMNWYQQKPGQPPKILIYDASNLESGIPARFSGSGSGTDFTLTISSLEPEDFAIYYCQQSNEDPWTFGGGTKVEIKRTVAAPSVFIFPPSDEQLKSGTASVVCLLNNFYPREAKVQWKVDNALQSGNSQESVTEQDSKDSTYSLSSTLTLSKADYEKHKVYACEVTHQGLSSPVTKSFNRGECGGGGSGGGGSGGGGSGGGGSGGGGSGGGGSGGGGSQVQLVQSGAEVKKPGASVKLSCTASGFNIKDDYIHWVKQAPGQGLEWIGRIDPADGHTKYAPKFQVKVTITADTSTSTAYLELSSLRSEDTAVYYCARYGYGREVFDYWGQGTTVTVSSASTKGPSVFPLAPCSRSTSESTAALGCLVKDYFPEPVTVSWNSGALTSGVHTFPAVLQSSGLYSLSSVVTVPSSSLGTKTYTCNVDHKPSNTKVDKRVGGGGSGGGGSGGGGSEVQLVESGGGLVKPGGSLRLSCAASGFTFSNYAMSWVRQAPGKRLEWVATISNRGSYTYYPDSVKGRFTISRDNAKNSLYLQMNSLRAEDTALYYCARERPMDYWGQGTLVTVSSASTKGPSVFPLAPCSRSTSESTAALGCLVKDYFPEPVTVSWNSGALTSGVHTFPAVLQSSGLYSLSSVVTVPSSSLGTKTYTCNVDHKPSNTKVDKRV", "light": "DIQMTQSPSTLSASVGDRVTITCKASQDVGTAVAWYQQKPGKAPKLLIYWASTRHTGVPDRFSGSGSGTDFTLTISSLQAEDFAVYFCHQHSSNPLTFGQGTKLEIKRTVAAPSVFIFPPSDEQLKSGTASVVCLLNNFYPREAKVQWKVDNALQSGNSQESVTEQDSKDSTYSLSSTLTLSKADYEKHKVYACEVTHQGLSSPVTKSFNRGEC"}, "B2": {"name": "construct #5: αC1s scFv-(G4S)2-αBb scFv (bispecific antibody)", "chain": "QVQLVQSGAEVKKPGASVKLSCTASGFNIKDDYIHWVKQAPGQGLEWIGRIDPADGHTKYAPKFQVKVTITADTSTSTAYLELSSLRSEDTAVYYCARYGYGREVFDYWGQGTTVTVSSGGGGSGGGGSGGGGSDIVLTQSPDSLAVSLGERATISCKASQSVDYDGDSYMNWYQQKPGQPPKILIYDASNLESGIPARFSGSGSGTDFTLTISSLEPEDFAIYYCQQSNEDPWTFGGGTKVEIKGGGGSGGGGSEVQLVESGGGLVKPGGSLRLSCAASGFTFSNYAMSWVRQAPGKRLEWVATISNRGSYTYYPDSVKGRFTISRDNAKNSLYLQMNSLRAEDTALYYCARERPMDYWGQGTLVTVSSGGGGSGGGGSGGGGSDIQMTQSPSTLSASVGDRVTITCKASQDVGTAVAWYQQKPGKAPKLLIYWASTRHTGVPDRFSGSGSGTDFTLTISSLQAEDFAVYFCHQHSSNPLTFGQGTKLEIK"}, "B3": {"name": "construct #6: αBb scFv-(G4S)2-αC1s scFv (bispecific antibody)", "chain": "EVQLVESGGGLVKPGGSLRLSCAASGFTFSNYAMSWVRQAPGKRLEWVATISNRGSYTYYPDSVKGRFTISRDNAKNSLYLQMNSLRAEDTALYYCARERPMDYWGQGTLVTVSSGGGGSGGGGSGGGGSDIQMTQSPSTLSASVGDRVTITCKASQDVGTAVAWYQQKPGKAPKLLIYWASTRHTGVPDRFSGSGSGTDFTLTISSLQAEDFAVYFCHQHSSNPLTFGQGTKLEIKGGGGSGGGGSQVQLVQSGAEVKKPGASVKLSCTASGFNIKDDYIHWVKQAPGQGLEWIGRIDPADGHTKYAPKFQVKVTITADTSTSTAYLELSSLRSEDTAVYYCARYGYGREVFDYWGQGTTVTVSSGGGGSGGGGSGGGGSDIVLTQSPDSLAVSLGERATISCKASQSVDYDGDSYMNWYQQKPGQPPKILIYDASNLESGIPARFSGSGSGTDFTLTISSLEPEDFAIYYCQQSNEDPWTFGGGTKVEIK"}, "B4": {"name": "construct #13: αC1s scFab-(G4S)2-αBb scFv (bispecific antibody)", "chain": "DIVLTQSPDSLAVSLGERATISCKASQSVDYDGDSYMNWYQQKPGQPPKILIYDASNLESGIPARFSGSGSGTDFTLTISSLEPEDFAIYYCQQSNEDPWTFGGGTKVEIKRTVAAPSVFIFPPSDEQLKSGTASVVCLLNNFYPREAKVQWKVDNALQSGNSQESVTEQDSKDSTYSLSSTLTLSKADYEKHKVYACEVTHQGLSSPVTKSFNRGECGGGGSGGGGSGGGGSGGGGSGGGGSGGGGSGGGGSQVQLVQSGAEVKKPGASVKLSCTASGFNIKDDYIHWVKQAPGQGLEWIGRIDPADGHTKYAPKFQVKVTITADTSTSTAYLELSSLRSEDTAVYYCARYGYGREVFDYWGQGTTVTVSSASTKGPSVFPLAPCSRSTSESTAALGCLVKDYFPEPVTVSWNSGALTSGVHTFPAVLQSSGLYSLSSVVTVPSSSLGTKTYTCNVDHKPSNTKVDKRVGGGGSGGGGSEVQLVESGGGLVKPGGSLRLSCAASGFTFSNYAMSWVRQAPGKRLEWVATISNRGSYTYYPDSVKGRFTISRDNAKNSLYLQMNSLRAEDTALYYCARERPMDYWGQGTLVTVSSGGGGSGGGGSGGGGSDIQMTQSPSTLSASVGDRVTITCKASQDVGTAVAWYQQKPGKAPKLLIYWASTRHTGVPDRFSGSGSGTDFTLTISSLQAEDFAVYFCHQHSSNPLTFGQGTKLEIK", "notes": "Residues 1-20 were left out as the signal peptide, which is marked by boldface only"}, "B5": {"name": "construct #8: αBb scFab-(G4S)3-αC1s scFab (bispecific antibody)", "chain": "DIQMTQSPSTLSASVGDRVTITCKASQDVGTAVAWYQQKPGKAPKLLIYWASTRHTGVPDRFSGSGSGTDFTLTISSLQAEDFAVYFCHQHSSNPLTFGQGTKLEIKRTVAAPSVFIFPPSDEQLKSGTASVVCLLNNFYPREAKVQWKVDNALQSGNSQESVTEQDSKDSTYSLSSTLTLSKADYEKHKVYACEVTHQGLSSPVTKSFNRGECGGGGSGGGGSGGGGSGGGGSGGGGSGGGGSGGGGSEVQLVESGGGLVKPGGSLRLSCAASGFTFSNYAMSWVRQAPGKRLEWVATISNRGSYTYYPDSVKGRFTISRDNAKNSLYLQMNSLRAEDTALYYCARERPMDYWGQGTLVTVSSASTKGPSVFPLAPCSRSTSESTAALGCLVKDYFPEPVTVSWNSGALTSGVHTFPAVLQSSGLYSLSSVVTVPSSSLGTKTYTCNVDHKPSNTKVDKRVGGGGGSGGGGSGGGGSDIVLTQSPDSLAVSLGERATISCKASQSVDYDGDSYMNWYQQKPGQPPKILIYDASNLESGIPARFSGSGSGTDFTLTISSLEPEDFAIYYCQQSNEDPWTFGGGTKVEIKRTVAAPSVFIFPPSDEQLKSGTASVVCLLNNFYPREAKVQWKVDNALQSGNSQESVTEQDSKDSTYSLSSTLTLSKADYEKHKVYACEVTHQGLSSPVTKSFNRGECGGGGSGGGGSGGGGSGGGGSGGGGSGGGGSGGGGSQVQLVQSGAEVKKPGASVKLSCTASGFNIKDDYIHWVKQAPGQGLEWIGRIDPADGHTKYAPKFQVKVTITADTSTSTAYLELSSLRSEDTAVYYCARYGYGREVFDYWGQGTTVTVSSASTKGPSVFPLAPCSRSTSESTAALGCLVKDYFPEPVTVSWNSGALTSGVHTFPAVLQSSGLYSLSSVVTVPSSSLGTKTYTCNVDHKPSNTKVDKRV", "notes": "Signal peptide marked by boldface only"}}, "key": {"[1]": {"molecular_target": "T1, human complement C1s enzyme (activated C1s) (human, UniProt P09871 16-437; P09871 438-688)", "T1 sequence 1": "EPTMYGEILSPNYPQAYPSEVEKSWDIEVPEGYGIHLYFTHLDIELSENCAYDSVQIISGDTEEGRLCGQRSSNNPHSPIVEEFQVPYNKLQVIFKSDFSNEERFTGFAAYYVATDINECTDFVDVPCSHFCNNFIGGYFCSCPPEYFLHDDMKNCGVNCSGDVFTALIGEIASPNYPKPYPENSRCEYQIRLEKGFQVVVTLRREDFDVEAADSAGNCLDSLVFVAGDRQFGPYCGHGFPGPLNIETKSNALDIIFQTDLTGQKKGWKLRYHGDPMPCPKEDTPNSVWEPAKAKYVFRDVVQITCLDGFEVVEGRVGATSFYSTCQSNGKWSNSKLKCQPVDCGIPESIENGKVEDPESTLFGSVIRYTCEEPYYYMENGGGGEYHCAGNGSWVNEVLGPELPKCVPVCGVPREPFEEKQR", "T1 sequence 2": "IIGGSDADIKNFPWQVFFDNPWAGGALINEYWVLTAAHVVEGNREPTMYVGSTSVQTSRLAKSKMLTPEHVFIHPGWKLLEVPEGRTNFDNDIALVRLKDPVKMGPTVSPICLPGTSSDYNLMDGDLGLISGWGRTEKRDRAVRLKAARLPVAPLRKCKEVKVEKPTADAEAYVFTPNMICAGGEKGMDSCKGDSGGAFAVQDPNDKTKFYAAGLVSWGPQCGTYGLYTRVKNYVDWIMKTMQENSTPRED", "assay": "cell-based or functional assay"}, "[2]": {"molecular_target": "T2, human complement factor Bb (human, UniProt P00751 260-764)", "T2 sequence (P00751 260-764)": "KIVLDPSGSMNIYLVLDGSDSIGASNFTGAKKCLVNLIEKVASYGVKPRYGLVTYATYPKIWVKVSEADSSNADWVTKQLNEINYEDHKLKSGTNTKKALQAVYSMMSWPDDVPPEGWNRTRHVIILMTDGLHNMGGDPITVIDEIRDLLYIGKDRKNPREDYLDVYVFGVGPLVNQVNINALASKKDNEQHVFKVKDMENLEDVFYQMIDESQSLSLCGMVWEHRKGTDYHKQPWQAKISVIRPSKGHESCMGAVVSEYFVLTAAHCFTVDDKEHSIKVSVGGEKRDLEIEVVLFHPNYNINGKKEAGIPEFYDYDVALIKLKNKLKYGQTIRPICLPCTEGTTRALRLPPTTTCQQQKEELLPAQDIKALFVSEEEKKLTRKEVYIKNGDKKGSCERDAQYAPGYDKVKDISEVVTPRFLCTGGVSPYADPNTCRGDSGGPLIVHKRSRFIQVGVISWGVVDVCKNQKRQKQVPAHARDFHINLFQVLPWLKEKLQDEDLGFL", "assay": "cell-based or functional assay"}, "[3]": {"molecular_target": "T1, human complement C1s enzyme (activated …)", "assay": "BLI (Octet), biotinylated target on streptavidin sensor", "description": "(§1) Bio-layer interferometry (BLI) was used to assess the recombinant proteins' target engagement to and binding affinity for complement C1s enzyme (active C1s or “C1s” herein) and factor Bb (Bb) (Complement Technology, Tyler, TX, USA). C1s and Bb were biotinylated with EZ-Link™ Sulfo-NHS-LC-LC-Biotin (Thermo Fisher, Waltham, MA, USA) according to manufacturer instructions. Biotinylated C1s or Bb was loaded on Octet® Streptavidin (SA) Biosensors (Sartorius, Göttingen, Germany), followed by a concentration range of purified proteins. To assess dual target engagement, biotinylated active C1s or Bb was loaded onto sensors, followed by purified proteins (“first association phase”), followed by the non-captured complement target (Bb or active C1s, non-biotinylated; “second association phase”). The assays were performed at 30° C. using PBS with 0.1% Tween 20 as a diluent (FIG. 3)."}, "[4]": {"molecular_target": "T2, human complement factor Bb", "assay": "BLI (Octet), biotinylated target on streptavidin sensor", "description": "as §1"}}}
{"binder": "B1", "values": [{"measurement": "IC50 CP (Wieslab)", "setting": "[1]", "result": 34, "unit": "nM"}, {"measurement": "IC50 AP (Wieslab); curve not saturated, estimated", "setting": "[2]", "result": "~2090", "unit": "nM"}]}
{"binder": "B2", "values": [{"measurement": "IC50 CP (Wieslab)", "setting": "[1]", "result": 216, "unit": "nM"}, {"measurement": "IC50 AP (Wieslab); curve not saturated, estimated", "setting": "[2]", "result": "~2830", "unit": "nM"}]}
{"binder": "B3", "values": [{"measurement": "IC50 CP (Wieslab)", "setting": "[1]", "result": 118, "unit": "nM"}, {"measurement": "IC50 AP (Wieslab); curve not saturated, estimated", "setting": "[2]", "result": "~1260", "unit": "nM"}]}
{"binder": "B4", "values": [{"measurement": "IC50 CP (Wieslab)", "setting": "[1]", "result": 44.4, "unit": "nM"}, {"measurement": "IC50 AP (Wieslab)", "setting": "[2]", "result": 201, "unit": "nM"}, {"measurement": "Kd", "setting": "[3]", "result": 1, "unit": "nM"}, {"measurement": "koff", "setting": "[3]", "result": 0.00029, "unit": "s⁻¹"}, {"measurement": "kon", "setting": "[3]", "result": 300000, "unit": "M⁻¹ s⁻¹"}, {"measurement": "Kd", "setting": "[4]", "result": 3, "unit": "nM"}, {"measurement": "koff", "setting": "[4]", "result": 0.00022, "unit": "s⁻¹"}, {"measurement": "kon", "setting": "[4]", "result": 70000, "unit": "M⁻¹ s⁻¹"}]}
{"binder": "B5", "values": [{"measurement": "IC50 CP (Wieslab)", "setting": "[1]", "result": 87.7, "unit": "nM"}, {"measurement": "IC50 AP (Wieslab)", "setting": "[2]", "result": 420, "unit": "nM"}, {"measurement": "Kd", "setting": "[3]", "result": 2.1, "unit": "nM"}, {"measurement": "koff", "setting": "[3]", "result": 0.00063, "unit": "s⁻¹"}, {"measurement": "kon", "setting": "[3]", "result": 300000, "unit": "M⁻¹ s⁻¹"}, {"measurement": "Kd", "setting": "[4]", "result": 1.8, "unit": "nM"}, {"measurement": "koff", "setting": "[4]", "result": 0.00021, "unit": "s⁻¹"}, {"measurement": "kon", "setting": "[4]", "result": 120000, "unit": "M⁻¹ s⁻¹"}]}
